According to US7127357:

Key:
[1] = biological target: WFYpSPFLE (Pintide), rhodamine-labeled; assay: fluorescence anisotropy, labeled peptide constant, protein varied
[2] = biological target: YpSPTpSPS (CTD-S2/S5), doubly phosphorylated CTD peptide (human); assay: as above
[3] = biological target: GSSpSPV (Wee1-S123), rhodamine-labeled (human); assay: as above
[4] = biological target: LYRpSPS (Cdc25c-S214), rhodamine-labeled (human); assay: as above
[5] = biological target: PPApTPP (Myt1-T412), rhodamine-labeled (human); assay: as above
[6] = biological target: STSpTPR (Myt1-T455), rhodamine-labeled (human); assay: as above
[7] = biological target: YSPTpSPS (CTD-S5), rhodamine-labeled (human); assay: as above
[8] = biological target: VPRpTPV (Cdc25c-T48), rhodamine-labeled (human); assay: as above
[9] = biological target: YpSPTSPS (CTD-S2), rhodamine-labeled (human); assay: as above
[10] = biological target: PPGpSPP (Myt1-S416), rhodamine-labeled (human); assay: as above
[11] = biological target: YLGpSPI (Cdc25c-S168), rhodamine-labeled (human); assay: as above
[12] = biological target: YpSPTpSPS (CTD-S2/S5), doubly phosphorylated CTD peptide (human); assay: fluorescence anisotropy

Kd [1] [µM] | Kd [2] [µM] | Kd [3] [µM] | Kd [4] [µM] | Kd [5] [µM] | Kd [6] [µM] | Kd [7] [µM] | Kd [8] [µM] | Kd [9] [µM] | Kd [10] [µM] | Kd [11] [µM] | fold reduction in binding affinity (against wild type Pin1) [12] [fold] | Substance
86 | 390 |  |  |  |  |  |  |  |  |  |  | isolated PPIase domain of human Pin1 (from UniProt Q13526 50-163) (enzyme)
17 | 10 | 73 | 47 | 12 | 46 | 30 | 4.9 | 61 | 80 | 69 |  | human Pin1 (full length, wild type) (from UniProt Q13526 1-163) (enzyme)
44 | 34 |  | 72 | 15 | 39 | 34 | 7.7 | 110 | 126 | 91 |  | isolated WW domain of human Pin1 (from UniProt Q13526 1-39)
 |  |  |  |  |  |  |  |  |  |  | 6 | Pin1 Trp-34 to Phe mutant (from UniProt Q13526 1-163) (enzyme)
